# Data taken from the supplement of paper PMC9112550, “Optimization of the antimicrobial peptide Bac7 by deep mutational scanning” (BMC Biology, 2022).
# System: Escherichia coli TOP10
# Experiment: shrunken log2 fold change of peptide-encoding DNA abundance (4.5 h post-induction vs induction); higher = less antimicrobial activity (less host growth inhibition)
# Conditions: time post-induction: 4.5 h; library: site-saturation at positions 5, 18, 19, 20
# 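Further: peptides expressed intracellularly from a pBAD plasmid library in pooled LB shake-flask culture, induced with 0.3% L-arabinose, DNA abundance read by NGS, three biological replicates, DESeq2 with apeglm shrinkage.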
row,Sequence,shrunken log2 fold change
1,RRIRERPPRLPRPRPRPFDSPRP,-1.81
2,RRIRNRPPRLPRPRPRPGFQPRP,-0.0148
3,RRIRNRPPRLPRPRPRPAAHPRP,-0.00675
4,RRIRNRPPRLPRPRPRPACWPRP,0.449
5,RRIRERPPRLPRPRPRPAWGPRP,-0.00226
6,RRIRGRPPRLPRPRPRPFLMPRP,0.364
7,RRIRRRPPRLPRPRPRPVKVPRP,-0.1
8,RRIRWRPPRLPRPRPRPCNEPRP,-0.409
9,RRIRLRPPRLPRPRPRPTVIPRP,-0.059
10,RRIRQRPPRLPRPRPRPTPDPRP,0.711
11,RRIRNRPPRLPRPRPRPWNFPRP,-0.0018
12,RRIRYRPPRLPRPRPRPFGTPRP,-0.158
13,RRIRGRPPRLPRPRPRPTVVPRP,0.41
14,RRIRPRPPRLPRPRPRPYYCPRP,-0.718
15,RRIRQRPPRLPRPRPRPTHYPRP,0.975
16,RRIRQRPPRLPRPRPRPRTCPRP,-0.576
17,RRIRDRPPRLPRPRPRPQCCPRP,0.0263
18,RRIRSRPPRLPRPRPRPGAAPRP,0.603
19,RRIRDRPPRLPRPRPRPDIWPRP,0.504
20,RRIRMRPPRLPRPRPRPCIYPRP,0.0933
21,RRIRGRPPRLPRPRPRPFHGPRP,0.0325
22,RRIRLRPPRLPRPRPRPCLDPRP,-0.0475
23,RRIRHRPPRLPRPRPRPGQSPRP,-0.0176
24,RRIRSRPPRLPRPRPRPWSSPRP,0.0531
25,RRIRQRPPRLPRPRPRPFMTPRP,-0.00963

row,Sequence,shrunken log2 fold change
1,RRIRERPPRLPRPRPRPNFNPRP,-0.376
2,RRIRDRPPRLPRPRPRPMFKPRP,-0.767
3,RRIRKRPPRLPRPRPRPYWMPRP,-0.19
4,RRIRKRPPRLPRPRPRPHFHPRP,0.0831
5,RRIRCRPPRLPRPRPRPFIWPRP,-0.717
6,RRIRVRPPRLPRPRPRPLEYPRP,0.0331
7,RRIRIRPPRLPRPRPRPAFFPRP,0.0559
8,RRIRNRPPRLPRPRPRPLVGPRP,0.0121
9,RRIRCRPPRLPRPRPRPDRMPRP,-0.139
10,RRIRPRPPRLPRPRPRPGQCPRP,-0.0386
11,RRIRCRPPRLPRPRPRPPAWPRP,0.692
12,RRIRTRPPRLPRPRPRPAEYPRP,-0.162
13,RRIRNRPPRLPRPRPRPQFIPRP,-0.125
14,RRIRCRPPRLPRPRPRPLGFPRP,-0.116
15,RRIRNRPPRLPRPRPRPQIYPRP,-0.0394
16,RRIRRRPPRLPRPRPRPHWWPRP,0.325
17,RRIRQRPPRLPRPRPRPKTFPRP,-0.259
18,RRIRQRPPRLPRPRPRPNYGPRP,-0.299
19,RRIRHRPPRLPRPRPRPSVVPRP,0.118
20,RRIRLRPPRLPRPRPRPQSQPRP,-0.179
21,RRIRNRPPRLPRPRPRPENCPRP,0.0518
22,RRIRERPPRLPRPRPRPVNGPRP,-0.323
23,RRIRARPPRLPRPRPRPEFCPRP,0.83
24,RRIRERPPRLPRPRPRPLKCPRP,-0.11
25,RRIRGRPPRLPRPRPRPDATPRP,4.21

row,Sequence,shrunken log2 fold change
1,RRIRVRPPRLPRPRPRPPFIPRP,-0.23
2,RRIRQRPPRLPRPRPRPQMNPRP,-0.72
3,RRIRPRPPRLPRPRPRPNKIPRP,-0.203
4,RRIRYRPPRLPRPRPRPCYGPRP,-0.211
5,RRIRTRPPRLPRPRPRPHPYPRP,0.0733
6,RRIRWRPPRLPRPRPRPVAEPRP,1.41
7,RRIRNRPPRLPRPRPRPNPEPRP,-0.224
8,RRIRKRPPRLPRPRPRPHLKPRP,0.0906
9,RRIRARPPRLPRPRPRPIMEPRP,0.0783
10,RRIRARPPRLPRPRPRPQYQPRP,-0.243
11,RRIRSRPPRLPRPRPRPGEIPRP,0.223
12,RRIRNRPPRLPRPRPRPTNEPRP,0.239
13,RRIRQRPPRLPRPRPRPQAQPRP,0.0471
14,RRIRLRPPRLPRPRPRPYFAPRP,-0.233
15,RRIRKRPPRLPRPRPRPQCGPRP,0.0718
16,RRIRNRPPRLPRPRPRPGDYPRP,0.0582
17,RRIRCRPPRLPRPRPRPNWVPRP,-0.279
18,RRIRNRPPRLPRPRPRPNKVPRP,-0.642
19,RRIRYRPPRLPRPRPRPTECPRP,-0.0134
20,RRIRQRPPRLPRPRPRPGWEPRP,-0.00991
21,RRIRMRPPRLPRPRPRPVTQPRP,0.317
22,RRIRMRPPRLPRPRPRPRFEPRP,0.36
23,RRIRIRPPRLPRPRPRPDQQPRP,0.062
24,RRIRQRPPRLPRPRPRPLIGPRP,-0.285
25,RRIRHRPPRLPRPRPRPASFPRP,-0.215
